Assays:
HeLa Kyoto [1] = experiment: solubility in G1/S (NP-40 vs SDS abundance) (log2 ratio); higher = more soluble; conditions: cell cycle stage: G1/S
HeLa Kyoto [2] = experiment: melting temperature (median over replicates), in situ; higher = more thermally stable
HeLa Kyoto [3] = experiment: solubility change mitosis vs G1/S (difference of NP-40 vs SDS log2 ratios) (log2 ratio difference); higher = more soluble in mitosis
HeLa Kyoto [4] = experiment: thermal stability score vs G1/S (z-score of summed log2 fold changes over temperatures); higher = more thermally stable than in G1/S
[5] = cell cycle stage: early G1 (4.5 h after nocodazole release)
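For melting temperature (median over replicates), in situ in this document: HeLa Kyoto cells synchronized by double thymidine or nocodazole block, proteins quantified by TMT10plex mass spectrometry, three independent biological replicates.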
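For solubility change mitosis vs G1/S (difference of NP-40 vs SDS log2 ratios) in this document: synchronized HeLa Kyoto cells (double thymidine block for G1/S, nocodazole release for mitosis), protein amounts in NP-40 versus SDS lysates quantified by mass spectrometry, three biological replicates.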
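For solubility in G1/S (NP-40 vs SDS abundance) in this document: HeLa Kyoto cells arrested at G1/S by double thymidine block, proteins quantified by TMT10plex mass spectrometry in mild NP-40 versus SDS extracts, three biological replicates.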
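For thermal stability score vs G1/S (z-score of summed log2 fold changes over temperatures) in this document: synchronized HeLa Kyoto cells, proteins quantified by TMT10plex mass spectrometry, three biological replicates, mitosis taken 0.5 h after nocodazole release, G1/S directly after double thymidine block.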

With “MTEGTCLRRRGGPYKTEPATDLGRWRLNCERGRQTWTYLQDERAGREQTGLEAYALGLDTKNYFKDLPKAHTAFEGALNGMTFYVGLQAEDGHWTGDYGGPLFLLPGLLITCHVARIPLPAGYREEIVRYLRSVQLPDGGWGLHIEDKSTVFGTALNYVSLRILGVGPDDPDLVRARNILHKKGGAVAIPSWGKFWLAVLNVYSWEGLNTLFPEMWLFPDWAPAHPSTLWCHCRQVYLPMSYCYAVRLSAAEDPLVQSLRQELYVEDFASIDWLAQRNNVAPDELYTPHSWLLRVVYALLNLYEHHHSAHLRQRAVQKLYEHIVADDRFTKSISIGPISKTINMLVRWYVDGPASTAFQEHVSRIPDYLWMGLDGMKMQGTNGSQIWDTAFAIQALLEAGGHHRPEFSSCLQKAHEFLRLSQVPDNPPDYQKYYRQMRKGGFSFSTLDCGWIVSDCTAEALKAVLLLQEKCPHVTEHIPRERLCDAVAVLLNMRNPDGGFATYETKRGGHLLELLNPSEVFGDIMIDYTYVECTSAVMQALKYFHKRFPEHRAAEIRETLTQGLEFCRRQQRADGSWEGSWGVCFTYGTWFGLEAFACMGQTYRDGTACAEVSRACDFLLSRQMADGGWGEDFESCEERRYLQSAQSQIHNTCWAMMGLMAVRHPDIEAQERGVRCLLEKQLPNGDWPQENIAGVFNKSCAISYTSYRNIFPIWALGRFSQLYPERALAGHP [LSS]” the “solubility in G1/S (log2)” value (HeLa Kyoto [1]) was -0.253, the melting temperature (HeLa Kyoto [2]; cell cycle stage: G1/S) was 52.7 °C and the melting temperature (HeLa Kyoto [2]; cell cycle stage: mitosis) was 52.6 °C. For the same substance, the “solubility change mitosis (log2)” value (HeLa Kyoto [3]) was 0.0123, the thermal stability score (HeLa Kyoto [4]; [5]) was 0.214 and the thermal stability score (HeLa Kyoto [4]; cell cycle stage: mitosis) was 0.242.

For “MLSSTAMYSAPGRDLGMEPHRAAGPLQLRFSPYVFNGGTILAIAGEDFAIVASDTRLSEGFSIHTRDSPKCYKLTDKTVIGCSGFHGDCLTLTKIIEARLKMYKHSNNKAMTTGAIAAMLSTILYSRRFFPYYVYNIIGGLDEEGKGAVYSFDPVGSYQRDSFKAGGSASAMLQPLLDNQVGFKNMQNVEHVPLSLDRAMRLVKDVFISAAERDVYTGDALRICIVTKEGIREETVSLRKD [PSMB1]”, the “solubility in G1/S (log2)” value (HeLa Kyoto [1]) was -0.00543, the melting temperature (HeLa Kyoto [2]; cell cycle stage: G1/S) was 57 °C and the melting temperature (HeLa Kyoto [2]; cell cycle stage: mitosis) was 60.1 °C. For the same substance, the “solubility change mitosis (log2)” value (HeLa Kyoto [3]) was -0.098, the thermal stability score (HeLa Kyoto [4]; [5]) was -1.78 and the thermal stability score (HeLa Kyoto [4]; cell cycle stage: mitosis) was -1.88.

With DOCK11 the “solubility in G1/S (log2)” value (HeLa Kyoto [1]) was -0.234, the melting temperature (HeLa Kyoto [2]; cell cycle stage: G1/S) was 51.4 °C and the melting temperature (HeLa Kyoto [2]; cell cycle stage: mitosis) was 51.5 °C. The “solubility change mitosis (log2)” value (HeLa Kyoto [3]) was -0.145, the thermal stability score (HeLa Kyoto [4]; [5]) was 0.076 and the thermal stability score (HeLa Kyoto [4]; cell cycle stage: mitosis) was -0.52.

For “MFRYESLEDCPLDEDEDAFQGLGEEDEEIDQFNDDTFGSGAVDDDWQEAHERLAELEEKLPVAVNEQTGNGERDEMDLLGDHEENLAERLSKMVIENELEDPAIMRAVQTRPVLQPQPGSLNSSIWDGSEVLRRIRGPLLAQEMPTVSVLEYALPQRPPQGPEDDRDLSERALPRRSTSPIIGSPPVRAVPIGTPPKQMAVPSFTQQILCPKPVHVRPPMPPRYPAPYGERMSPNQLCSVPNSSLLGHPFPPSVPPVLSPLQRAQLLGGAQLQPGRMSPSQFARVPGFVGSPLAAMNPKLLQGRVGQMLPPAPGFRAFFSAPPSATPPPQQHPPGPGPHLQNLRSQAPMFRPDTTHLHPQHRRLLHQRQQQNRSQHRNLNGAGDRGSHRSSHQDHLRKDPYANLMLQREKDWVSKIQMMQLQSTDPYLDDFYYQNYFEKLEKLSAAEEIQGDGPKKERTKLITPQVAKLEHAYKPVQFEGSLGKLTVSSVNNPRKMIDAVVTSRSEDDETKEKQVRDKRRKTLVIIEKTYSLLLDVEDYERRYLLSLEEERPALMDDRKHKICSMYDNLRGKLPGQERPSDDHFVQIMCIRKGKRMVARILPFLSTEQAADILMTTARNLPFLIKKDAQDEVLPCLLSPFSLLLYHLPSVSITSLLRQLMNLPQSAATPALSNPHLTAVLQNKFGLSLLLILLSRGEDLQSSDPATESTQNNQWTEVMFMATRELLRIPQAALAKPISIPTNLVSLFSRYVDRQKLNLLETKLQLVQGIR [PATL1]”, the “solubility in G1/S (log2)” value (HeLa Kyoto [1]) was 0.255, the melting temperature (HeLa Kyoto [2]; cell cycle stage: G1/S) was 49.2 °C and the melting temperature (HeLa Kyoto [2]; cell cycle stage: mitosis) was 48.5 °C. For the same substance, the “solubility change mitosis (log2)” value (HeLa Kyoto [3]) was -0.0674, the thermal stability score (HeLa Kyoto [4]; [5]) was -0.863 and the thermal stability score (HeLa Kyoto [4]; cell cycle stage: mitosis) was 0.327.

With “MAAEVYFGDLELFEPFDHPEESIPKPVHTRFKDDDGDEEDENGVGDAELRERLRQCEETIEQLRAENQELKRKLNILTRPSGILVNDTKLDGPILQILFMNNAISKQYHQEIEEFVSNLVKRFEEQQKNDVEKTSFNLLPQPSSIVLEEDHKVEESCAIKNNKEAFSVVGSVLYFTNFCLDKLGQPLLNENPQLSEGWEIPKYHQVFSHIVSLEGQEIQVKAKRPKPHCFNCGSEEHQMKDCPMPRNAARISEKRKEYMDACGEANNQNFQQRYHAEEVEERFGRFKPGVISEELQDALGVTDKSLPPFIYRMRQLGYPPGWLKEAELENSGLALYDGKDGTDGETEVGEIQQNKSVTYDLSKLVNYPGFNISTPRGIPDEWRIFGSIPMQACQQKDVFANYLTSNFQAPGVKSGNKRSSSHSSPGSPKKQKNESNSAGSPADMELDSDMEVPHGSQSSESFQFQPPLPPDTPPLPRGTPPPVFTPPLPKGTPPLTPSDSPQTRTASGAVDEDALTLEELEEQQRRIWAALEQAESVNSDSDVPVDTPLTGNSVASSPCPNELDLPVPEGKTSEKQTLDEPEVPEIFTKKSEAGHASSPDSEVTSLCQKEKAELAPVNTEGALLDNGSVVPNCDISNGGSQKLFPADTSPSTATKIHSPIPDMSKFATGITPFEFENMAESTGMYLRIRSLLKNSPRNQQKNKKASE [ZCCHC8]” the “solubility in G1/S (log2)” value (HeLa Kyoto [1]) was 0.0806, the melting temperature (HeLa Kyoto [2]; cell cycle stage: G1/S) was 51 °C and the melting temperature (HeLa Kyoto [2]; cell cycle stage: mitosis) was 52.4 °C. The “solubility change mitosis (log2)” value (HeLa Kyoto [3]) was -0.117, the thermal stability score (HeLa Kyoto [4]; [5]) was 0.273 and the thermal stability score (HeLa Kyoto [4]; cell cycle stage: mitosis) was 0.547.

“MSGCRVFIGRLNPAAREKDVERFFKGYGRIRDIDLKRGFGFVEFEDPRDADDAVYELDGKELCSERVTIEHARARSRGGRGRGRYSDRFSSRRPRNDRRNAPPVRTENRLIVENLSSRVSWQDLKDFMRQAGEVTFADAHRPKLNEGVVEFASYGDLKNAIEKLSGKEINGRKIKLIEGSKRHSRSRSRSRSRTRSSSRSRSRSRSRSRKSYSRSRSRSRSRSRSKSRSVSRSPVPEKSQKRGSSSRSKSPASVDRQRSRSRSRSRSVDSGN [SRSF5]” was tested, and the “solubility in G1/S (log2)” value (HeLa Kyoto [1]) was -0.33, the melting temperature (HeLa Kyoto [2]; cell cycle stage: G1/S) was 51.3 °C and the melting temperature (HeLa Kyoto [2]; cell cycle stage: mitosis) was 51.5 °C. The “solubility change mitosis (log2)” value (HeLa Kyoto [3]) was 0.302, the thermal stability score (HeLa Kyoto [4]; [5]) was 1.65 and the thermal stability score (HeLa Kyoto [4]; cell cycle stage: mitosis) was -4.18.

“MAATSLMSALAARLLQPAHSCSLRLRPFHLAAVRNEAVVISGRKLAQQIKQEVRQEVEEWVASGNKRPHLSVILVGENPASHSYVLNKTRAAAVVGINSETIMKPASISEEELLNLINKLNNDDNVDGLLVQLPLPEHIDERRICNAVSPDKDVDGFHVINVGRMCLDQYSMLPATPWGVWEIIKRTGIPTLGKNVVVAGRSKNVGMPIAMLLHTDGAHERPGGDATVTISHRYTPKEQLKKHTILADIVISAAGIPNLITADMIKEGAAVIDVGINRVHDPVTAKPKLVGDVDFEGVRQKAGYITPVPGGVGPMTVAMLMKNTIIAAKKVLRLEEREVLKSKELGVATN [MTHFD2]” was tested, and the “solubility in G1/S (log2)” value (HeLa Kyoto [1]) was 0.505, the melting temperature (HeLa Kyoto [2]; cell cycle stage: G1/S) was 52.5 °C and the melting temperature (HeLa Kyoto [2]; cell cycle stage: mitosis) was 53.3 °C. For the same substance, the “solubility change mitosis (log2)” value (HeLa Kyoto [3]) was -0.0584, the thermal stability score (HeLa Kyoto [4]; [5]) was 0.31 and the thermal stability score (HeLa Kyoto [4]; cell cycle stage: mitosis) was -0.889.

With “MASDEGKLFVGGLSFDTNEQSLEQVFSKYGQISEVVVVKDRETQRSRGFGFVTFENIDDAKDAMMAMNGKSVDGRQIRVDQAGKSSDNRSRGYRGGSAGGRGFFRGGRGRGRGFSRGGGDRGYGGNRFESRSGGYGGSRDYYSSRSQSGGYSDRSSGGSYRDSYDSYATHNE [CIRBP]” the “solubility in G1/S (log2)” value (HeLa Kyoto [1]) was -0.000215, the melting temperature (HeLa Kyoto [2]; cell cycle stage: G1/S) was 52.8 °C and the melting temperature (HeLa Kyoto [2]; cell cycle stage: mitosis) was 53 °C. The “solubility change mitosis (log2)” value (HeLa Kyoto [3]) was 0.112, the thermal stability score (HeLa Kyoto [4]; [5]) was -0.492 and the thermal stability score (HeLa Kyoto [4]; cell cycle stage: mitosis) was -2.78.

“MKKMSRNVLLQMEEEEDDDDGDIVLENLGQTIVPDLGSLESQHDFRTPEFEEFNGKPDSLFFNDGQRRIDFVLVYEDESRKETNKKGTNEKQRRKRQAYESNLICHGLQLEATRSVLDDKLVFVKVHAPWEVLCTYAEIMHIKLPLKPNDLKNRSSAFGTLNWFTKVLSVDESIIKPEQEFFTAPFEKNRMNDFYIVDRDAFFNPATRSRIVYFILSRVKYQVINNVSKFGINRLVNSGIYKAAFPLHDCKFRRQSEDPSCPNERYLLYREWAHPRSIYKKQPLDLIRKYYGEKIGIYFAWLGYYTQMLLLAAVVGVACFLYGYLNQDNCTWSKEVCHPDIGGKIIMCPQCDRLCPFWKLNITCESSKKLCIFDSFGTLVFAVFMGVWVTLFLEFWKRRQAELEYEWDTVELQQEEQARPEYEARCTHVVINEITQEEERIPFTAWGKCIRITLCASAVFFWILLIIASVIGIIVYRLSVFIVFSAKLPKNINGTDPIQKYLTPQTATSITASIISFIIIMILNTIYEKVAIMITNFELPRTQTDYENSLTMKMFLFQFVNYYSSCFYIAFFKGKFVGYPGDPVYWLGKYRNEECDPGGCLLELTTQLTIIMGGKAIWNNIQEVLLPWIMNLIGRFHRVSGSEKITPRWEQDYHLQPMGKLGLFYEYLEMIIQFGFVTLFVASFPLAPLLALVNNILEIRVDAWKLTTQFRRLVPEKAQDIGAWQPIMQGIAILAVVTNAMIIAFTSDMIPRLVYYWSFSVPPYGDHTSYTMEGYINNTLSIFKVADFKNKSKGNPYSDLGNHTTCRYRDFRYPPGHPQEYKHNIYYWHVIAAKLAFIIVMEHVIYSVKFFISYAIPDVSKRTKSKIQREKYLTQKLLHENHLKDMTKNMGVIAERMIEAVDNNLRPKSE [ANO6]” was tested, and the “solubility in G1/S (log2)” value (HeLa Kyoto [1]) was 0.0135, the melting temperature (HeLa Kyoto [2]; cell cycle stage: G1/S) was 54.6 °C and the melting temperature (HeLa Kyoto [2]; cell cycle stage: mitosis) was 54.3 °C. For the same substance, the “solubility change mitosis (log2)” value (HeLa Kyoto [3]) was -0.0681, the thermal stability score (HeLa Kyoto [4]; [5]) was 0.734 and the thermal stability score (HeLa Kyoto [4]; cell cycle stage: mitosis) was 0.413.

— the supplement of paper PMC5998384
